# Tests used:
# [1] = system: T1, NE peptide substrate with acetylated N-terminal CKKK-PEG4 linker and C-terminal pentafluoropropylamine reporter (peptide-PFC)
# T1 sequence: CKKKXXXX
# [2] = system: T2, NE peptide substrate with acetylated N-terminal CKKK-PEG4 linker and C-terminal heptafluorobutylamine reporter (peptide-PFC)
# T2 sequence: CKKKXXXX
Substance,PFC release from the peptide substrate (real-time vapor analysis mass spectrometry) [1],PFC release from the peptide substrate (real-time vapor analysis mass spectrometry) [2]
MMP13,minimal cleavage by other proteases ... (MMP9 and MMP13,minimal cleavage by other proteases ... (MMP9 and MMP13
MMP9,minimal cleavage by other proteases ... (MMP9 and MMP13,minimal cleavage by other proteases ... (MMP9 and MMP13

# — patent US20190271704
